Measured values as given in US20240117334A1, “FACTOR B PROTEASES” (Vertex Pharmaceuticals Incorporated, priority 2021, published 2024).
Residue numbers refer to the chain shown, from its start. Names may count otherwise.

B1: chymase C22S/F41V/L99W/G151L/F173K/R217S/A226R (enzyme)
chain: IIGGTESKPHSRPYMAYLEIVTSNGPSKVCGGFLIRRNFVLTAAHCAGRSITVTLGAHNITEEEDTWQKLEVIKQFRHPKYNTSTWHHDIMLLKLKEKASLTLAVGTLPFPSQFNFVPPGRMCRVAGWGRTGVLKPLSDTLQEVKLRLMDPQACSHKRDFDHNLQLCVGNPRKTKSAFKGDSGGPLLCAGVAQGIVSYGSSDAKPPRVFTRISHYRPWINQILQAN
B2: chymase C22S/A226R (enzyme)
chain: B1 chain with V29F, W86L, L137G, K157F, S200R
B3: chymase C22S/F173Y/D175N/A226R (enzyme)
chain: B1 chain with V29F, W86L, L137G, K157Y, D159N, S200R

Assays:
EGVD/AE-ACT = assay: reaction of the protease with the serpin bait EGVD/AE-ACT
[1] = biological target: alpha-2-marcroglobin (A2M) (UniProt P01023); assay: inhibition of the protease by the plasma inhibitor
Chain of alpha-2-marcroglobin (A2M) (P01023 24-1474): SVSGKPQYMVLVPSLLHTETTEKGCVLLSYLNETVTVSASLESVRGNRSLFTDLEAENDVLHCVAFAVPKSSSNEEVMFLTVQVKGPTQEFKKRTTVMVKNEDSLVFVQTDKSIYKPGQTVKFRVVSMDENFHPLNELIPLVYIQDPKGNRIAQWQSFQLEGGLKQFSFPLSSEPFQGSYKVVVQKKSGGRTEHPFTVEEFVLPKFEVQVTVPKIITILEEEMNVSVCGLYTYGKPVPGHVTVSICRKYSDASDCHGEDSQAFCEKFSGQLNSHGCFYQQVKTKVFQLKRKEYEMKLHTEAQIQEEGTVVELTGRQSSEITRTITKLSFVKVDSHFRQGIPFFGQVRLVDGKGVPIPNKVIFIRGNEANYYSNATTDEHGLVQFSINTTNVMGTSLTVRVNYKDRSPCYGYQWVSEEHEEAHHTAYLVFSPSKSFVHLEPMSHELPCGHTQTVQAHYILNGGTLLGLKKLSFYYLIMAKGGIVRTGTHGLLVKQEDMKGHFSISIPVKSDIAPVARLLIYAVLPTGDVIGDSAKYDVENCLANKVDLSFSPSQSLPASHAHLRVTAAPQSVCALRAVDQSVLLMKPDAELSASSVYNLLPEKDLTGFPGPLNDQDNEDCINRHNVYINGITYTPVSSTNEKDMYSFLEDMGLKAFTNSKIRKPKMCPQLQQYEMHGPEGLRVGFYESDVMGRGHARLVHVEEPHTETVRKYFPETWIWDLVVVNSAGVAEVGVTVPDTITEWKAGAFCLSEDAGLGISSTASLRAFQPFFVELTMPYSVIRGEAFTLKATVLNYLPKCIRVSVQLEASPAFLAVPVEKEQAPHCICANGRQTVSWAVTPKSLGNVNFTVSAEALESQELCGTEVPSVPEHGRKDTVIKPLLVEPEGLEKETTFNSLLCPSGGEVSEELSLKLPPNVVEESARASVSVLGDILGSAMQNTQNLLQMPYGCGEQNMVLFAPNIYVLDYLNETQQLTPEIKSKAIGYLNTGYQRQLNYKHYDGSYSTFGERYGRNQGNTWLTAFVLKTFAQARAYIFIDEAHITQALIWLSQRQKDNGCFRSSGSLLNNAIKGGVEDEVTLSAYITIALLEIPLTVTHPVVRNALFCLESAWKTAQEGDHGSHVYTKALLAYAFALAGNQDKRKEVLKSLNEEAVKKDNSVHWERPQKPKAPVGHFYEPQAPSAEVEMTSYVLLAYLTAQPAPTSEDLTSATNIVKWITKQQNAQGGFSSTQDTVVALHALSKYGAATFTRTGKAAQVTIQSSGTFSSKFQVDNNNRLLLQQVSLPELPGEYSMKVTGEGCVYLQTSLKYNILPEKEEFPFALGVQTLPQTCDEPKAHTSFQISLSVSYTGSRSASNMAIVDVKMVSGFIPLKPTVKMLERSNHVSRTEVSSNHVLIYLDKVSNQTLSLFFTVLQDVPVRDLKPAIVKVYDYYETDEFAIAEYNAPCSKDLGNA

Binder	k*app (second order rate constant) (EGVD/AE-ACT)	kapp [1]
B1	1360	329 M⁻¹ s⁻¹
B2	77	812 M⁻¹ s⁻¹
B3		645 M⁻¹ s⁻¹
